Data: paper PMC3554691, “Systematic Functional Comparative Analysis of Four Single-Stranded DNA-Binding Proteins and Their Affection on Viral RNA Metabolism” (PLoS ONE, 2013)

Legend:
[1] = target: SSB protein from Sulfolobus Solfataricus P2 (SSOB) (Sulfolobus Solfataricus P2) (UniProt Q97W73); experiment: native gel or EMSA; 5 µg of ssob on non-denaturing gradient polyacrylamide gel, running buffer and gel at pH 7.4, poles reversed, Coomassie stained; self-association
[2] = target: T1, SSB protein from Thermococcus kodakarensis KOD1 (KOD) (Thermococcus kodakarensis KOD1); experiment: native gel or EMSA; 5 µg of SSB protein on 3.5–5–12% non-denaturing gradient polyacrylamide gel with NativeMarker, Coomassie stained; self-association; conditions: both partners purified
T1 chain: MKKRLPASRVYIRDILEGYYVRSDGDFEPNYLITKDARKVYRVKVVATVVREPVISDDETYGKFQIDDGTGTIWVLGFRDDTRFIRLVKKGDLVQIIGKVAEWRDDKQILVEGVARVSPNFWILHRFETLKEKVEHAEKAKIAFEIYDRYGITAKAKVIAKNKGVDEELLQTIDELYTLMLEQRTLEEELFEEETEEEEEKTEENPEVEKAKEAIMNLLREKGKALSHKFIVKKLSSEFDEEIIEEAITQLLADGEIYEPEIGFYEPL

[3] = target: the molecule itself; experiment: as above

Molecule “SSB protein from Sulfolobus Solfataricus P2 (SSOB) (from UniProt Q97W73 1-148) (natural protein)” has a stoichiometry N [1] of 4.

B1: SSB protein from Thermococcus kodakarensis KOD1 (KOD) (natural protein)
chain: T1 chain
modifications: N-terminal His tag left out. The locus TK1959 (RPA41, the 41 kDa replication factor A subunit) is inferred from the printed 356 residues and 41.6 kDa; it is not printed in the paper. / N-terminal His
B1 was tested, and the “stoichiometry N” value [2] was 2.

B2: SSB protein from Thermus thermophilus HB8 (TTH) (natural protein, UniProt Q5SLP9 1-263, looked up)
chain: MARGLNRVFLIGALATRPDMRYTPAGLAILDLTLAGQDLLLSDNGGEREVSWYHRVRLLGRQAEMWGDLLDQGQLVFVEGRLEYRQWEREGERRSELQIRADFLDPLDDRGKERAEDSRGQPRLRAALNQVFLMGNLTRDPELRYTPQGTAVARLGLAVNERRQGAEERTHFVEVQAWRDLAEWAAELRKGDGLFVIGRLVNDSWTSSSGERRFQTRVEALRLERPTRGPAQAGGSRSREVQTGGVDIDEGLEDFPPEEELPF
notes: printed length 263 residues, monomer 29.8 kDa; also called TTH SSB protein; source: E. coli BL21 (DE3), purified (70°C heat treatment, Ni2+ Sepharose, dialysis); not shown: His6, N-terminal, kept
B2 was tested, and the “stoichiometry N” value [3] was 2.
